{"source": "paper PMC10281526", "about": "“Polydom/SVEP1 binds to Tie1 and promotes migration of lymphatic endothelial cells” (The Journal of Cell Biology, 2023)", "parents": {"B1": {"name": "recombinant Tie1 extracellular domain, Fc fusion protein [not stated] / GST fusion protein of the 20th CCP domain of Polydom [mouse] (parent complex)", "chain 1": "AVDLTLLANLRLTDPQRFFLTCVSGEAGAGRGSDAWGPPLLLEKDDRIVRTPPGPPLRLARNGSHQVTLRGFSKPSDLVGVFSCVGGAGARRTRVIYVHNSPGAHLLPDKVTHTVNKGDTAVLSARVHKEKQTDVIWKSNGSYFYTLDWHEAQDGRFLLQLPNVQPPSSGIYSATYLEASPLGSAFFRLIVRGCGAGRWGPGCTKECPGCLHGGVCHDHDGECVCPPGFTGTRCEQACREGRFGQSCQEQCPGISGCRGLTFCLPDPYGCSCGSGWRGSQCQEACAPGHFGADCRLQCQCQNGGTCDRFSGCVCPSGWHGVHCEKSDRIPQILNMASELEFNLETMPRINCAAAGNPFPVRGSIELRKPDGTVLLSTKAIVEPEKTTAEFEVPRLVLADSGFWECRVSTSGGQDSRRFKVNVKVPPVPLAAPRLLTKQSRQLVVSPLVSFSGDGPISTVRLHYRPQDSTMDWSTIVVDPSENVTLMNLRPKTGYSVRVQLSRPGEGGEGAWGPPTLMTTDCPEPLLQPWLEGWHVEGTDRLRVSWSLPLVPGPLVGDGFLLRLWDGTRGQERRENVSSPQARTALLTGLTPGTHYQLDVQLYHCTLLGPASPPAHVLLPPSGPPAPRHLHAQALSDSEIQLTWKHPEALPGPISKYVVEVQVAGGAGDPLWIDVDRPEETSTIIRGLNASTRYLFRMRASIQGLGDWSNTVEESTLGNGLQAEGPVQESRAAEEGLDQ", "chain 2": "IHCSDPQPIENGFVEGADYRYGAMIIYSCFPGFQVLGHAMQTCEESGWSSSSPTCVP"}}, "data": [{"variants_of": "B1", "test": "solid-phase binding assay; parent: 1.25; read off a plot", "units": {"response": "A490"}, "values": [{"variant": "chain 2 G22A", "response": "~1.1"}, {"variant": "chain 2 R20A", "response": "~1.3"}, {"variant": "chain 2 V14A", "response": "~0.53"}, {"variant": "chain 2 I25A", "response": "~0.6"}, {"variant": "chain 2 G16A", "response": "~0.07"}, {"variant": "chain 2 M24A", "response": "~1.2"}, {"variant": "chain 2 D18A", "response": "~1.1"}, {"variant": "chain 2 A23G", "response": "~1.4"}, {"variant": "chain 2 Y19A", "response": "~1.4"}, {"variant": "chain 2 E15A", "response": "~0.04"}, {"variant": "chain 2 Y21A", "response": "~1.4"}, {"variant": "chain 2 A17G", "response": "~0.93"}, {"variant": "chain 2 I26A", "response": "~1.3"}]}]}
